Test results: patent US20250270341A1 (Alector, published 2025)

T1: huCD98hc ECD Avi-His (human, UniProt P08195 105-529)
T1 construct: biotinylated on the Avi tag where captured on streptavidin; also called Human CD98-AVI-His; Human CD98hc-AVI-His
T1 sequence: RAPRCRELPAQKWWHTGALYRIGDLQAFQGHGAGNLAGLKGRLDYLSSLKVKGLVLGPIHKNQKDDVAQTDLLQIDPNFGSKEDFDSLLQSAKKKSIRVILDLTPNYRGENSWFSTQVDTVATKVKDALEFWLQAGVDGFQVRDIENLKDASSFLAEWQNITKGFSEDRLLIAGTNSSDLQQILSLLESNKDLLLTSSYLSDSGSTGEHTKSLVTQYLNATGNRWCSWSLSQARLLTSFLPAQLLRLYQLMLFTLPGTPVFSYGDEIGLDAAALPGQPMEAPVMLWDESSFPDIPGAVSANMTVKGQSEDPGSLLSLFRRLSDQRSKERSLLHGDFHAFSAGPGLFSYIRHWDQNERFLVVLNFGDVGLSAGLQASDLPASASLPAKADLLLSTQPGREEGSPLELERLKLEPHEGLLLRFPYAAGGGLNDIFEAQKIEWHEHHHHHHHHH

T2: Cyno CD98hc ECD Avi-His (cynomolgus macaque, UniProt P08195 105-529 (human entry))
T2 construct: biotinylated on the Avi tag where captured on streptavidin; also called Cyno CD98-AVI-His; Cyno CD98hc-AVI-His
T2 chain: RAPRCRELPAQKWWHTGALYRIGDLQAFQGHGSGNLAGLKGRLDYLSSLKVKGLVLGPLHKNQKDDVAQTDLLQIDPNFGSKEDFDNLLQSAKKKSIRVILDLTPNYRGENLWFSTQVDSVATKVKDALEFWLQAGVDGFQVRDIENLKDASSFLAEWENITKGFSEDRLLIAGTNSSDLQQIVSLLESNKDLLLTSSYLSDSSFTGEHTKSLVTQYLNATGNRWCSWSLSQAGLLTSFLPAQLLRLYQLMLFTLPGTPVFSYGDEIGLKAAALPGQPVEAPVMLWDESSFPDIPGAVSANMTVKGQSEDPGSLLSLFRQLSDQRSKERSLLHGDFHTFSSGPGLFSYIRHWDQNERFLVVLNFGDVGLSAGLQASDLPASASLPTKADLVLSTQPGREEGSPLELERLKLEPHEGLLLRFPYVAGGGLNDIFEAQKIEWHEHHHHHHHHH


Key:
[1] = target: T1, huCD98hc ECD Avi-His; experiment: SPR, Biacore T200, anti-kappa capture
Experimental: (§1) Binding kinetics of 2+1 anti-CD98hc bispecific antibodies to recombinant human and cynomolgus CD98hc ECD Avi-His were evaluated using a Biacore T200 instrument (Global Life Sciences Solutions USA LLC, Marlborough, MA). The 2+1 anti-CD98hc bispecific antibodies were prepared by diluting to 50 μg/mL in running buffer HBS-EP+ (Teknova) with 0.5 mg/mL BSA (MP Biomedicals) and captured by a goat anti-human kappa polyclonal antibody (Southern Biotech) surface that was prepared according to the instrument manufacturer's recommendations. Two independent experiments were performed as follows, resulting in an N of between one and […] determinations for each antibody. Estimates of affinity were generated by injecting each analyte over captured antibody on Flowcell 2, 3, or 4. CD98hc ECD Avi-His analytes were diluted with running buffer, in a series of five, three-fold serial dilutions starting from 600 nM. Analytes were injected without regeneration, from lowest to highest concentration, for 5 minutes each, and dissociation was followed for 15 minutes. After each analyte injection series, antibodies were regenerated with 10 mM glycine pH 2.0 buffer (Cytiva). Data were processed and analyzed using Biacore T200 BiaEvaluation software (Cytiva).
(§2) The equilibrium dissociation constants (KD) were calculated from the fitted association and dissociation rate constants (k-on and k-off) for 2+1 anti-CD98hc bispecific antibodies of the present disclosure binding to human and cynomolgus CD98hc ECD Avi-His. For measurements with N>1, means and standard deviation were calculated and measurements for all samples were combined and graphed using GraphPad Prism.

[2] = target: T2, Cyno CD98hc ECD Avi-His; experiment: SPR, Biacore T200, anti-kappa capture
Experimental: as §1, §2

[3] = target: T1, huCD98hc ECD Avi-His; experiment: SPR, Biacore T200, Protein A/G capture
Experimental: (§3) Binding kinetics of humanized anti-CD98hc antibodies were evaluated using the Biacore T200 (Cytiva). Briefly, IgGs were diluted to 10 μg/mL and captured using a Protein A/G (ThermoFisher, #21186) surface on a CM5 chip that was prepared by amine coupling according to the instrument manufacturer's recommendations. The captured antibodies were tested for their ability to bind human and cynomolgus monkey CD98hc as follows.
(§4) Each sample was injected for 2 minutes to allow association, followed by dissociation in buffer alone for 10 minutes. Each sample injection was followed by the regeneration of the chip with three 30-second injections of 10 mM glycine pH 1.7. Fresh antibody was captured at the beginning of each cycle.
(§5) Data were analyzed using Biacore evaluation software to generate kinetic constants. The equilibrium dissociation constants (KD) were calculated from the fitted association and dissociation rate constants (k-on and k-off) for each of the anti-CD98hc antibodies.

[4] = target: T2, Cyno CD98hc ECD Avi-His; experiment: SPR, Biacore T200, Protein A/G capture
Experimental: as §3, §4, §5

Binder | Kd [1] [nM] | Kd [2] [nM] | Kd [3] [nM] | Kd [4] [nM]
CD98hc.04.064.1a (humanized, 2+1 format) (bispecific antibody, tested as 2+1 bispecific (scFv on an IgG)) scFv: QVQLVQSGAEVKKPGASVKVSCKASGYTFTSYWMNWVRQAPGQGLEWMGIIDPSDSETHYAQKFQGRVTMTVDKSTSTVYMELSSLRSEDTAVYYCARASYGKGYFDYWGQGTLVTVSSGGSEGKSSGSGSESKSTGGSDIVMTQSPDSLAVSLGERATINCKSSQSLLNNINQKNYLAWYQQKPGQPPKLLIYFASTRESGVPDRFSGSGSGTDFTLTISSLQAEDVAVYYCQQHYSSPFTFGGGTKVEIK | 31 | 880 | – | –
CD98hc.04.064.1d (humanized, 2+1 format) (bispecific antibody, tested as 2+1 bispecific (scFv on an IgG)) scFv: QVQLVQSGAEVKKPGASVKVSCKASGYTFTSYWMNWVRQAPGQGLEWMGIIDPSDSETSYAQKFQGRVTMTVDKSTSTVYMELSSLRSEDTAVYYCARASYGKGYFDYWGQGTLVTVSSGGSEGKSSGSGSESKSTGGSDIVMTQSPDSLAVSLGERATINCKSSQSLLNNINQKNYLAWYQQKPGQPPKLLIYFASTRESGVPDRFSGSGSGTDFTLTISSLQAEDVAVYYCQQHYSSPFTFGGGTKVEIK | 24 | 360 | 35 | 1500
CD98hc.04.064.1e (humanized, 2+1 format) (bispecific antibody, tested as 2+1 bispecific (scFv on an IgG)) scFv: QVQLVQSGAEVKKPGASVKVSCKASGYTFTSYWMHWVRQAPGQGLEWMGIIDPSDSETHYAQKFQGRVTMTVDKSTSTVYMELSSLRSEDTAVYYCARASYGKGYFDYWGQGTLVTVSSGGSEGKSSGSGSESKSTGGSDIVMTQSPDSLAVSLGERATINCKSSQSLLNNINQKNYLAWYQQKPGQPPKLLIYFASTRESGVPDRFSGSGSGTDFTLTISSLQAEDVAVYYCQQHYSSPFTFGGGTKVEIK | 13 | 120 | 25 | 740
CD98hc.04.064.4a (humanized, 2+1 format) (bispecific antibody, tested as 2+1 bispecific (scFv on an IgG)) scFv: QVQLVQSGAEVKKPGASVKVSCKASGYTFTSYWMNWVRQAPGQGLEWMGIIDPSDSETNYAQKFQGRVTSTVDKSISTAYMELSRLRSDDTVVYYCARASYGKGYFDYWGQGTLVTVSSGGSEGKSSGSGSESKSTGGSDIVMTQSPDSLAVSLGERATINCKSSQSLLNNINQKNYLAWYQQKPGQPPKLLIYFASTRESGVPDRFSGSGSGTDFTLTISSLQAEDVAVYYCQQHYSSPFTFGGGTKVEIK | 34 | 430 | – | –
CD98hc.04.064.4b (humanized, 2+1 format) (bispecific antibody, tested as 2+1 bispecific (scFv on an IgG)) scFv: QVQLVQSGAEVKKPGASVKVSCKASGYTFTSYWMNWVRQAPGQGLEWMGIIDPSDSETNYAQKFQGRVTSTVDKSISTAYMELSRLRSDDTVVYYCARASYGKGYFDYWGQGTLVTVSSGGSEGKSSGSGSESKSTGGSDIVMTQSPDSLAVSLGERATINCKSSQSLLNNINQKNYLAWYQQKPGQPPKLLIYFASTRESGVPDRFSGSGSGTDFTLTISSLQAEDVAVYFCQQHYSSPFTFGGGTKVEIK | 30 | 620 | – | –
CD98hc.04.064.4c (humanized, 2+1 format) (bispecific antibody, tested as 2+1 bispecific (scFv on an IgG)) scFv: QVQLVQSGAEVKKPGASVKVSCKASGYTFTSYWMHWVRQAPGQGLEWMGIIDPSDSETNYAQKFQGRVTSTVDKSISTAYMELSRLRSDDTVVYYCARASYGKGYFDYWGQGTLVTVSSGGSEGKSSGSGSESKSTGGSDIVMTQSPDSLAVSLGERATINCKSSQSLLNNINQKNYLAWYQQKPGQPPKLLIYFASTRESGVPDRFSGSGSGTDFTLTISSLQAEDVAVYYCQQHYSSPFTFGGGTKVEIK | 17 | 310 | – | –
CD98hc.04.064.4d (humanized, 2+1 format) (bispecific antibody, tested as 2+1 bispecific (scFv on an IgG)) scFv: QVQLVQSGAEVKKPGASVKVSCKASGYTFTSYWMHWVRQAPGQGLEWMGIIDPSDSETSYAQKFQGRVTMTRDTSTSTVYMELSSLRSEDTAVYYCARASYGKGYFDYWGQGTLVTVSSGGSEGKSSGSGSESKSTGGSDIQMTQSPSSLSASVGDRVTITCRASQSLLNNINQKNYLAWYQQKPGKAPKLLIYFASSLQSGVPSRFSGSGSGTDFTLTISSLQPEDFATYYCQQHYSSPFTFGGGTKVEIK | 12 | 160 | 18 | 340
